This passage reports Kd results from PMC10977726 (PLOS ONE, 2024).

In this assay the target is human IgG Fc (Biotin-SP-ChromPure Human IgG, Fc fragment) (human, biotin (Biotin-SP)). Description: SPR. To be noted: both partners purified.

B1: His(6)-SUMO-TEV-Ig-CON-5 fusion protein (designed binder)
chain: ENLYFQGECKGKGAKCSSISIHDAHCCTGSCRSGKC
As to B1, the Kd came to 22.2 nM.
